Reference: paper PMC9569990 (International Journal of Molecular Sciences, 2022)

Experiments:
Assay in all cases: SPR; cytokine immobilised on ProteOn GLH sensor chip by amine coupling (9,000-14,000 RU); S100P (wild type or mutant) as analyte, 62 nM-16 µM; 25 °C; 10 mM HEPES, 150 mM NaCl, 1 mM CaCl2, 0.05% TWEEN 20, pH 7.4; heterogeneous ligand model (two ligand populations), one-site model for IL-13; values averaged over analyte concentrations (n = 3-5)
Conditions in all cases: both partners purified
[1] = molecular target: T1, Granulocyte colony-stimulating factor (human, UniProt P09919-2 31-204)
T1 construct: Granulocyte colony-stimulating factor, human, UniProt P09919; No catalogue number (n/a); also called G-CSF; source: bought: Pharmstandard (Russia) (source E. coli)
T1 sequence (looked up): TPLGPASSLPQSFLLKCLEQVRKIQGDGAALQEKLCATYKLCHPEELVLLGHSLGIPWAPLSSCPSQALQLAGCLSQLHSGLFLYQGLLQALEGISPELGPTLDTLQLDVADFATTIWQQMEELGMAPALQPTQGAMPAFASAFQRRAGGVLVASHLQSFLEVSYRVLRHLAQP

[2] = molecular target: T2, Leptin (human, UniProt P41159 22-167)
T2 construct: Leptin, human, UniProt P41159; see the manufacturer's catalogue number; source: bought: PeproTech (source E. coli)
T2 sequence (P41159 22-167): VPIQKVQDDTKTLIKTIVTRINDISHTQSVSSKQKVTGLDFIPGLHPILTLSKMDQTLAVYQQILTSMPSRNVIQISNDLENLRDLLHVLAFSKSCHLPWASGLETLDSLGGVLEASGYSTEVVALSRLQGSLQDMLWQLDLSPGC

[3] = molecular target: T3, Interleukin-10 (human, UniProt P22301 19-178)
T3 construct: Interleukin-10, human, UniProt P22301; see the manufacturer's catalogue number; also called IL-10; source: bought: PeproTech (source E. coli)
T3 sequence (P22301 19-178): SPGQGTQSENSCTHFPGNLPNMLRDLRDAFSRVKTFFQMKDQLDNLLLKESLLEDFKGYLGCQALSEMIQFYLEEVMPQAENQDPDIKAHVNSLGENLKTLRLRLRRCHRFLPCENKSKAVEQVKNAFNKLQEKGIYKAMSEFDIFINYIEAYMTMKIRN

[4] = molecular target: T4, Interleukin-20 (human, UniProt Q9NYY1 25-176)
T4 construct: Interleukin-20, human, UniProt Q9NYY1; see the manufacturer's catalogue number; also called IL-20; source: bought: PeproTech (source E. coli)
T4 sequence (looked up): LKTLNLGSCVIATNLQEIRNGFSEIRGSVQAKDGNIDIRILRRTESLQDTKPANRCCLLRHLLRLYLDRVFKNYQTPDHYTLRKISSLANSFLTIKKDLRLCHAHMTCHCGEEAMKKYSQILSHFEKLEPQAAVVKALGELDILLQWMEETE

[5] = molecular target: T5, Interleukin-26 (human, UniProt Q9NPH9 22-171)
T5 construct: Interleukin-26, human, UniProt Q9NPH9; see the manufacturer's catalogue number; also called IL-26; source: bought: R&D Systems (source E. coli)
T5 sequence (looked up): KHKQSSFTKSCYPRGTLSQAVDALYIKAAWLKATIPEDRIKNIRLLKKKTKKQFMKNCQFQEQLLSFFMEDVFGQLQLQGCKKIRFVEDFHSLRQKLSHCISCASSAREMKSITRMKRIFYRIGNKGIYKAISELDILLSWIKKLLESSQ

[6] = molecular target: T6, Granulocyte-macrophage colony-stimulating factor (human, UniProt P04141 18-144)
T6 construct: Granulocyte-macrophage colony-stimulating factor, human, UniProt P04141; see the manufacturer's catalogue number; also called GM-CSF; source: bought: PeproTech (source E. coli)
T6 sequence (P04141 18-144): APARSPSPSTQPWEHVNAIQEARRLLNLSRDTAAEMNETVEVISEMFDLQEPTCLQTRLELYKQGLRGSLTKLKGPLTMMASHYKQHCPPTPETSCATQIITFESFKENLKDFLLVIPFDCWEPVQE

Kd1 (heterogeneous ligand model, population 1) [1]: 213 nM | Kd2 (heterogeneous ligand model, population 2) [1]: 854 nM | kd1 (heterogeneous ligand model, population 1) [1]: 0.000315 s⁻¹ | kd2 (heterogeneous ligand model, population 2) [1]: 0.0154 s⁻¹ | Kd1 (heterogeneous ligand model, population 1) [2]: 143 nM | Kd2 (heterogeneous ligand model, population 2) [2]: 404 nM | kd1 (heterogeneous ligand model, population 1) [2]: 0.000452 s⁻¹ | kd2 (heterogeneous ligand model, population 2) [2]: 0.0307 s⁻¹ | Kd1 (heterogeneous ligand model, population 1) [3]: 2.55 µM | Kd2 (heterogeneous ligand model, population 2) [3]: 2.66 µM | kd1 (heterogeneous ligand model, population 1) [3]: 0.0106 s⁻¹ | kd2 (heterogeneous ligand model, population 2) [3]: 0.000519 s⁻¹ | Kd1 (heterogeneous ligand model, population 1) [4]: 403 nM | Kd2 (heterogeneous ligand model, population 2) [4]: 537 nM | kd1 (heterogeneous ligand model, population 1) [4]: 0.000442 s⁻¹ | kd2 (heterogeneous ligand model, population 2) [4]: 0.0246 s⁻¹ | Kd1 (heterogeneous ligand model, population 1) [5]: 9.02 nM | Kd2 (heterogeneous ligand model, population 2) [5]: 1.32 µM | kd1 (heterogeneous ligand model, population 1) [5]: 0.000144 s⁻¹ | kd2 (heterogeneous ligand model, population 2) [5]: 0.00509 s⁻¹ | Kd1 (heterogeneous ligand model, population 1) [6]: 245 nM | Kd2 (heterogeneous ligand model, population 2) [6]: 450 nM | kd1 (heterogeneous ligand model, population 1) [6]: 0.00113 s⁻¹ | kd2 (heterogeneous ligand model, population 2) [6]: 0.0672 s⁻¹
B1: Human S100P protein (recombinant, Ca^2+-loaded) (natural protein)
chain: MTELETAMGMIIDVFSRYSGSEGSTQTLTKGELKVLMEKELPGFLQSGKDKDAVDKLLKDLDANGDAQVDFSEFIVFVAAITSACHKYFEKAGLK
notes: S100P protein, human, recombinant; probably the whole 95-residue protein (surmise); also called wild-type S100P; WT S100P; source: E. coli, prepared as previously described [28]
